Reference: US20190127480A1 (Regeneron, published 2019)
Where a chain is given by its changes, count along the chain named.

B1: H1H5778P (antibody, human IgG1, V domains shown)
VH: EVQLVESGGGLVQPGRSLRLSCVASGFTFADFTMHWVRQAPGKGLEWVSGISWNSNSIDYADSVKGRFTISRDNAKKSLFLQMSSLRAEDTALYYCVKDRSGYSRFYYGMDVWGQGTTVTVSS
VL: EIVMTQSPATLSVSPGERAILSCRASQNINSNLAWYQQKPGQAPRLLIYGASTRATGVPARFSGSGSGTEFTLTIRSLQSEDFAVYYCQQYYNWPITFGHGTRLEIK
notes: H1H: human IgG1 Fc; divalent
B2: H1H5757B (antibody, human IgG1, V domains shown)
VH: EVQLVESGGGVVQPGRSLRLSCAASGFTFSSYGMHWVRQAPGKGLEWVTVILHDGSNRYSADSVKGRFTISRDNSKNTLYLQMNILRVEDTAVYYCTKGAMVRGVPYNHYYGMDVWGQGTTVTVSS
VL: DIQMTQSPSSLSASVGDRVTITCRASQGIRNDLGWYQQKPGKAPKRLIYAASILQSGVPSRFSGSGSGTEFTLTISSLQPEDFATYYCLQHNSYPYTFGQGTKLEIKR
notes: H1H: human IgG1 Fc; divalent
B3: H1H5758B (antibody, human IgG1, V domains shown)
VH: B2 VH with S60Y, V88A
VL: B2 VL with Q3V, I53N
notes: H1H: human IgG1 Fc; divalent
B4: H1H5793B (antibody, human IgG1, V domains shown)
VH: QVQLVQSGTEVKKPGASMKVSCKASGYTFTGYYIHWVRQAPGQGLEWMGWINPNSDVTKYAQKFQGRVTLTRDTSISAAYIDLSRLRSDDTAIYYCARMGDGAVFDYWGQGTLVTVSS
VL: DIQLTQSPSSLSASVGDRVTITCRASQRISSYLNWYQQKPGKAPKVLISVASSLQSGVPSRFSGSGFGTDFTLTISSLQPEDSASYYCQQSYNTPLTFGGGTKLEIKR
notes: H1H: human IgG1 Fc; divalent
B5: H1H5756B (antibody, human IgG1, V domains shown)
VH: EVQLVESGGGVVQPGRSLRLSCTASGFPFSRYGMHWVRQAPGKGLEWVTFIWYDGSNKYYADSAKGRFTITRDNSKNTVYLQMDSLRADDTAVYYCVRDQAALYYFDSWGQGTLVTVSS
VL: DIQMTQSPSSVSASVGDRVTITCRASQGISRWLAWYQQKPGKAPKLLISAASSLQSGVPSRFSGSGSGTDFTLTISGLQPEDFATYYCQKANSFPFTFGPGTKLEIKR
notes: H1H: human IgG1 Fc; divalent
B6: H1H5771P (antibody, human IgG1, V domains shown)
VH: EVQLVESGGGLVQPGRSLRLSCAASGFSFDNYAMHWVRQAPGQGLEWVSGISWNSGSRDYADSVKGRFTISRDNARNSLFLQMNSLSNEDTAMYYCAKDKSGYGSYFYGMDVWGQGTTVTVSS
VL: EIVLTQSPGTLSLSPGDRATLSCRASQSIRNIYLAWYQQKPGQAPRLLIHGASTRATGIPDRFSGSGSGTDFTLTISRLEPEDFAVYYCQQRVSLPYTFGQGTKLEIK
notes: H1H: human IgG1 Fc; divalent
B7: H1H5781P (antibody, human IgG1, V domains shown)
VH: EVQLVESGGGLVQPGRSLRLSCAASGFTFDDFTMHWVRQAPGKGLEWVSDISWNSGSIDYADSVKGRFTISRDNARNSLFLQMSSLRTEDTASYYCIKDKSGYGSYNYGLDVWGQGTTVTVSS
VL: B6 VL with I29V, R30S, N31S, V86L, Q90H, L95S
notes: H1H: human IgG1 Fc; divalent
B8: H1H5772S (antibody, V domains shown)
VH: B6 VH with E1Q, N31D, S55G, S87F, N88T, M93L
VL: B6 VL with T10I, L95S
notes: H1H: human IgG1 Fc; divalent; also called H1H5772P
B9: H1H5780P (antibody, human IgG1, V domains shown)
VH: EVQLVESGGGLVQPGRSLRLSCAASGFTFDDYAMHWVRQAPGKGLEWVSGISWNGGSKDYADSVKGRFTISRDNTRNSLSLQMNSLRIEDTALYYCAKDKSGYGSFYYGLDVWGQGTTVTVSS
VL: B6 VL with N31S, L95S
notes: H1H: human IgG1 Fc; divalent
B10: H1H5786B (antibody, human IgG1, V domains shown)
VH: QVQLVESGAEVKKPGASVKVSCKTSGYTFTGYYMHWIRQAPGQGLEWMGWINPKSGGTNYAQKFQGRVTMTRDTSISTAYMELSRLRSDDMAVYYCARMGDGAVFDFWGQGTLVTVSS
VL: AIQMTQSPSSLSASVGDRVTITCRASQRISSFLNWYQQKPGKAPKLLIYTASNLQNGVPSRFSGSGSGTDFTLTISSLQPEDFATYYCQQSYRTPLTFGGGTKVEIKR
notes: H1H: human IgG1 Fc; divalent
B11: H1H5795B (antibody, human IgG1, V domains shown)
VH: B10 VH with Q1E, T28S, T30I, M34I, I37M, G57V, K63R, R87K, M91T, Y95F
VL: B10 VL with A1D, M4L, A43V, S65T, E105D
notes: H1H: human IgG1 Fc; divalent
B12: H1H5790B (antibody, human IgG1, V domains shown)
VH: EVQLVESGGGVVQPGRSLRLSCAASGFTFSYYGMHWVRQAPGKGLEWVAVISFDGKNKYYADSVMGRFTISRDNSKNTLYLQMNSLRAEDSAVFFCARSYDILTGYGAGYSYHYGMDVWGQGTTVTVSS
VL: B10 VL
notes: H1H: human IgG1 Fc; divalent
B13: H1H5799P (antibody, human IgG1, V domains shown)
VH: B10 VH with E6Q, T24A, T30I, I37V, R72G, M91T, Y94F, V104M, F107Y
VL: DIQMTQSPSSLSASVGDRVTITCRASQRISSYLNWYQQKAGKAPKVLIYTASSLQSGVPSRFSGSGSGTDFTLTISSLQPEDFATYYCQQSYSTPLTFGGGTKVEIK
notes: H1H: human IgG1 Fc; divalent
B14: H1H5791B (antibody, human IgG1, V domains shown)
VH: B10 VH with F29L, T30S, I37M, G57V, G66D, T69A, M91T, G109A
VL: B10 VL with A1D, M4L, V104L
notes: H1H: human IgG1 Fc; divalent
B15: H1H5763P (antibody, human IgG1, V domains shown)
VH: QVQLVESGGGVVQPGRSLRLSCAASGLTFSSYGMHWVRQAPGKGLEWVAVISYDGSNKYYTDSVKGRFTISRDNSKNTLYLQMNSLRAEDTAVYYCAKGAMVRGVPYNYYYGMDVWGQGTTVTVSS
VL: DIQMTQSPSSLSASVGDRVTITCRASQGIRNDLGWYQQKPGKAPKRLIYAASSLQSGVPSRFSGSGSGTEFTLTISSLQPEDFATYYCLQHNSYPYTFGQGTKLEIK
notes: H1H: human IgG1 Fc; divalent
B16: H1H5764P (antibody, human IgG1, V domains shown)
VH: B15 VH with L27F, S30R, Y32F, S56N, N57Y, T61A, Y94H, Y109F
VL: B15 VL with G28V, V58I
notes: H1H: human IgG1 Fc; divalent

These binders were tested against T1, Soluble heterodimeric CD3 protein (hCD3-epsilon/hCD3-delta) with either a human Fc tag (hFcΔAdp/hFc) or a … (human, UniProt P07766 23-126; P04234 22-105) (assay: SPR Biacore 25C antigen-capture).
T1 construct: also called hCD3ε/δ; not shown: Fc tag: human (hFcΔAdp/hFc)
T1 sequence (P07766 23-126 limits assumed, stated change not applied, chain 1 of 2): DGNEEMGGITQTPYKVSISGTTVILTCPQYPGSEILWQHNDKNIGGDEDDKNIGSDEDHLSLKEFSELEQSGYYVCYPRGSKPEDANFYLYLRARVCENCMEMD
T1 sequence (P04234 22-105 limits assumed, stated change not applied, chain 2 of 2): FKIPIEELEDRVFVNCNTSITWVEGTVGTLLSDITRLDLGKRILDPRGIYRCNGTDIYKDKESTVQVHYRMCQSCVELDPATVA
Protocol: (§1) Measurements were conducted on a T200 Biacore™ instrument.
In the antigen-capture format, heterodimeric CD3 protein was captured using a rabbit anti-mouse Fc or mouse anti-human Fc and the respective antibodies were injected over the captured antigen.
(§2) Kinetic association (kₐ) and dissociation (kd) rate constants were determined by processing and fitting the data to a 1:1 binding model using Scrubber 2.0 curve fitting software. Binding dissociation equilibrium constants (KD) and dissociative half-lives (t₁₁₂) were calculated from the kinetic rate constants as: KD (M)=kd/kₐ; and t_{1/2} (min)=(ln 2/(60*kd). NT=not tested; NB=no binding observed.

Row | Kd [nM] | T½ [min] | koff [s⁻¹] | kon [M⁻¹ s⁻¹] | Binder
1 | 0.0856 | 338 | 3.42e-05 | 399000 | B1
2 | 1.64 | 39 | 0.000295 | 180000 | B2
3 | 3.97 | 21 | 0.000562 | 142000 | B3
4 | 0.333 | 73 | 0.000159 | 478000 | B4
5 | 0.767 | 105 | 0.000111 | 144000 | B5
6 | 0.371 | 34 | 0.000342 | 923000 | B6
7 | 1.92 | 43 | 0.000268 | 140000 | B7
8 | 1.67 | 13 | 0.000869 | 519000 | B8
9 | 0.358 | 68 | 0.000171 | 478000 | B9
10 | 0.141 | 27 | 0.000424 | 3e+06 | B10
11 | 0.145 | 50 | 0.000229 | 1.58e+06 | B11
12 | 0.254 | 49 | 0.000236 | 925000 | B12
13 | 7.85 | 2 | 0.00564 | 718000 | B13
14 | 0.433 | 34 | 0.00034 | 786000 | B14
15 | 92.4 | 1 | 0.017 | 184000 | B15
16 | 21 | 2 | 0.00736 | 350000 | B16

The binders below were run against T1, Soluble heterodimeric CD3 protein … (assay: SPR Biacore 25C antibody-capture).
Protocol: as §1
Soluble heterodimeric CD3 protein (hCD3-epsilon/hCD3-delta; SEQ ID NOs:1652/1653) with either a human Fc tag (hFcΔAdp/hFc; SEQ ID NOs:1683/1684) or a mouse Fc tag (mFcΔAdp/mFc; SEQ ID NOs:1685/1686) was injected over the antibody captured surface and the binding response was recorded. Heterodimeric CD3 protein was purified using the method described in Davis et al. (US2010/0331527).
as §2

Row | Kd [nM] | T½ [min] | koff [s⁻¹] | kon [M⁻¹ s⁻¹] | Binder
17 | 27.8 | 75 | 0.000154 | 5520 | B1
18 | 118 | 15 | 0.000785 | 6630 | B2
19 | 233 | 10 | 0.00117 | 5020 | B3
20 | 44.7 | 30 | 0.000382 | 8540 | B4
21 | 32.6 | 43 | 0.000266 | 8150 | B5
22 | 20.9 | 18 | 0.000626 | 30000 | B6
23 | 57.7 | 23 | 0.000497 | 8610 | B7
24 | 99.6 | 7 | 0.00155 | 15600 | B8
25 | 30.4 | 29 | 0.000399 | 13100 | B9
26 | 85.4 | 11 | 0.00108 | 12600 | B10
27 | 33.3 | 20 | 0.000576 | 17300 | B11
28 | 28.3 | 22 | 0.000517 | 18200 | B12
29 | 579 | 1 | 0.00788 | 13600 | B13
30 | 72.5 | 15 | 0.00079 | 10900 | B14
31 | 2920 | 0 | 0.054 | 18500 | B15
32 | 3820 | 1 | 0.0159 | 4160 | B16
